Test results reported in publication PMC5461540, “MOB1 Mediated Phospho-recognition in the Core Mammalian Hippo Pathway” (Molecular & Cellular Proteomics : MCP, 2017).

Molecular target: MOB1B 2-216 (UniProt Q7L9L4)
Assay: SPOT peptide array overlaid with GST-MOB1B

Row | binding against the reference (reference: nonphosphorylated T353 15-mer, sites T353) | binding against the reference (reference: nonphosphorylated T367 15-mer, sites T367) | Substance
1 | stronger | – | MST1 (from UniProt Q13043) pT353 15-mer
2 | – | stronger | MST1 (from UniProt Q13043) pT367 15-mer
